No end group written: not given here.
What was measured:
[1] = target: full-length human APLNR (hAPLNR) (human) (UniProt P35414); test: cell-based or functional assay
[2] = target: human Apelin receptor (hAPLNR) of PathHunter eXpress AGTRL1 CHO-K1 beta-Arrestin cells (human) (UniProt P35414); test: cell-based or functional assay
[3] = target: full-length human APLNR (hAPLNR) (human) (UniProt P35414); test: FACS on HEK293/CRE-luc/hAPLNR cells
[4] = target: T1, full length cynomolgus APLNR (MfAPLNR) (cynomolgus (Macaca fascicularis)); test: FACS on HEK293/CRE-luc/MfAPLNR cells
T1 sequence: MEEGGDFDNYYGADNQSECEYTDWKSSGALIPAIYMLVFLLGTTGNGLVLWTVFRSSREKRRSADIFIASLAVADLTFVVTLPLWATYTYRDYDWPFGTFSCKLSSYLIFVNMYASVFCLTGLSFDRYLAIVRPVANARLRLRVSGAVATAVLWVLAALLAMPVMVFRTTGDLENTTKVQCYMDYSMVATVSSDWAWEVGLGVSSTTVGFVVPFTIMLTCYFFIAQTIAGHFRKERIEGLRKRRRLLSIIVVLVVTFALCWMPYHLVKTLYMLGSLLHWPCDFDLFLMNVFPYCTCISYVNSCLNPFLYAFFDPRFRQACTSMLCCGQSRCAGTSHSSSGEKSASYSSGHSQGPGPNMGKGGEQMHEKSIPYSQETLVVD

- % Activation at 100 nM mAb (7.5 uM Forskolin), CRE-luc [1]: 53%
- % Activation at 100 nM mAb (10 uM Forskolin), CRE-luc [1]: 37%
- EC50 [M] (7.5 uM Forskolin), CRE-luc [1]: 1.1e-08 M
- EC50 [M] (10 uM Forskolin), CRE-luc [1]: > 1e-07 M
- % Activation at 500 nM antibody or Apelin-antibody fusion, PathHunter beta-Arrestin assay [2]: 6%
- Binding Ratio of Geom. Mean to Unstained Cells [3]: 12 fold
- Binding Ratio of Geom. Mean to Unstained Cells [4]: 3 fold
B1: Anti-myc 9E10 Nter VH fusion with (G4S)3 linker (Apelin fused to an irrelevant anti-myc antibody) (antibody, part only; not given: anti-myc antibody chains, part only)
heavy, part: QRPRLSHKGPMPFGGGGSGGGGSGGGGS-{VH of anti‑myc 9E10 antibody}
modifications: ends and bridges not checked

— US20190177410A1
